Reference: US20160320391A1 (Genentech, published 2016)

T1: purified recombinant soluble hamster (Cricetulus griseus) phospholipase B-like 2 (PLBL2), his-tagged (hamster (Cricetulus griseus))
T1 construct: Transiently expressed in CHO-K1 cells and purified from the supernatant; In the rabbit serum assay the protein was biotinylated; also called PLB2; PLBD2; not shown: histidine (his) tag added
T1 chain: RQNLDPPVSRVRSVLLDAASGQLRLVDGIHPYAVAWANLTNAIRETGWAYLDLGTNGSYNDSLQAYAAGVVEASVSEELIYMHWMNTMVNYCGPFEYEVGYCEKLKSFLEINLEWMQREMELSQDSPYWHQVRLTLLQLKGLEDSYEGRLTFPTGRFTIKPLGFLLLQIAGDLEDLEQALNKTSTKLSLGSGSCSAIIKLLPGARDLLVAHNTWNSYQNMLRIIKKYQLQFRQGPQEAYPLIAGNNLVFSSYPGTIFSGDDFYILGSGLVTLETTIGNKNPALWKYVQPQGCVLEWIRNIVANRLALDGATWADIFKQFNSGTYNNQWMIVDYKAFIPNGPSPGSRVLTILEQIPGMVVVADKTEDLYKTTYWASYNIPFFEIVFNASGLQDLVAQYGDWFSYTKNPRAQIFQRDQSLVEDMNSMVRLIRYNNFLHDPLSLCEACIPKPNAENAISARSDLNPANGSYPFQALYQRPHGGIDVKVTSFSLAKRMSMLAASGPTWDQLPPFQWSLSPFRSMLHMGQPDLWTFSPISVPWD

B1: 15G11 anti-PLBL2 murine monoclonal antibody conjugated to biotin (antibody, mouse IgG1, kappa, V domains shown)
VH: EVKLEESGGGLVQPGGSTKLSCAASGFTFSDAWMDWVRQCPEKGLEWVAEISSKANNRATYYAESVKGRFTISRDDSKSCVYLQMNSLRAEDTGIYYCTRRGYTMDYWGQGTSVTVSS
VL: DIVMTQSQKFMSTSVGDRVSVTCKASQNVDTNVAWYQQKPGQSPKALIFSASYRFSGVPDRFTGSGSGTDFTLTISNVQSEDLAEYFCQQYNNFPFTFGSGTKLELKR
modifications: biotin conjugated with E-Z Link NHS-Biotin; sites not stated
notes: Mouse IgG1, kappa, biotinylated; Used as the detection antibody of the monoclonal PLBL2 ELISA; also called biotinylated 15G11; detection antibody
B2: 19C10 (recombinant murine monoclonal anti-hamster PLBL2 antibody) (antibody, mouse IgG1, kappa, V domains shown)
VH: EVQLQESGPCLVKPSQTLSLTCSVTGDSITSGYWNWIRKFPGNKLESMGYISYSGSTYYNPSLKSRISITRDTSKNQYYLQLNSVTTEDTATYYCARIASWITTYFDYWGQGTTLTVSS
VL: DIVMTQSPAILSVSPGERVSFSCRASQSIGTSIHWYQQRRNGSPRLLIKYASESISGIPSRFSGSGSGTDFILSINSVESEDIADYYCQQSNSWPYTFGGGTKLELKR
notes: Mouse IgG1, kappa, expressed transiently in 293 or CHO cells; also called capture antibody; coat antibody

Legend:
[1] = molecular target: T1, purified recombinant soluble hamster …; assay: sandwich ELISA, biotinylated 15G11 as detection antibody on PLBL2 standard captured by coated 19C10, streptavidin-HRP, OD 450 nm; the value describes the whole sandwich
Method: (§1) An ELISA assay to detect and quantify the CHOP impurity, PLBL2, in recombinant polypeptide samples, such as recombinant antibody or immunoadhesin preparations, was developed. The procedure is as follows. Murine monoclonal antibody 19C10 was coated onto a half area 96-well microtiter plate at a concentration of 0.5 μg/mL in carbonate buffer (0.05M sodium carbonate, pH 9.6), overnight at 2-8° C. After coating, the plate was blocked with Blocking Buffer (0.15M NaCl, 0.1M sodium phosphate, 0.1% fish gelatin, 0.05% polysorbate 20, 0.05% Proclin® 300 [Sigma-Aldrich]; also referred to as Assay Diluent) to prevent non-specific sticking of proteins. […]
(§2) After a 2 hr. incubation step with biotinylated 15G11 at room temperature, Streptavidin HRP (1:200,000 dilution in Assay Diluent) was added to the microtiter plate wells. After a final wash step with Wash Buffer (described above), color was developed (for PLBL2 quantification) by adding a solution of TMB (50 μl/well) (SUREBLUE RESERVE™ from KPL, Kirkegaard & Perry Laboratories, Inc., Gaithersburg, Md., cat no. 53-00-03) followed by incubation at room temperature for 10-20 minutes. […]

[2] = molecular target: T1, purified recombinant soluble hamster …; assay: sandwich ELISA, 19C10 coated as capture antibody, PLBL2 standard titrated, detection with biotinylated 15G11 and streptavidin-HRP, OD 450 nm; the value describes the whole sandwich
Method: as §1, §2

Binder | EC50 (read off the curve) [1] [ng/mL] | EC50 (read off the curve) [2] [ng/mL]
B1 | ~10 | –
B2 | – | ~10
